For assay [1], the target named is chymase cleavage-type IL-18 (UniProt Q14116). As to the kind of experiment: cell-based or functional assay.
Assay [2] addresses human cell-derived natural IL-18 (human) (UniProt Q14116). Description: cell-based or functional assay.
Assay [3] has as its target T1, human IL-18 (MBL Medical & Biological Laboratories, Co., Ltd.) (human, UniProt Q14116 37-193, biotinylated (Biotin-PEAC5-maleimide or Biotin-AC5 Sulfo-OSu) in the streptavidin plate ELISAs and the panning; not labelled in the receptor binding and KG-1 assays).
T1 construct: Bought protein; also called human interleukin-18; biotinylated human IL-18
T1 sequence (looked up): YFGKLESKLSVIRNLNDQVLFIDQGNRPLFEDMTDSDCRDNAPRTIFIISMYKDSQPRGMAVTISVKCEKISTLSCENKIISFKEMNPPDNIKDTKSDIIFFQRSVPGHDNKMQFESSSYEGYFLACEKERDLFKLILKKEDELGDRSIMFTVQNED
As to the kind of experiment: ELISA: biotinylated human IL-18 on streptavidin plate, anti-mouse IgG/HRP. Here is the method:
The biotinylated human IL-18 was diluted to 1 μg/mL with PBS (Sigma-Aldrich Corp.), added at 100 μL/well to Streptavidin plates (Nunc), and incubated at room temperature for 1 hour to immobilize the human IL-18. The plates were washed with PB ST, and human IL-18BPa-hFc (R&D Systems, Inc.) diluted to 10 μg/mL with 1% BSA-PBS was added at 100 μL/well to the plates and incubated at 37° C. for 1 hour to form a complex of IL-18 and IL-18BP. The plates were washed with PBST, and 4A6D scFv-mFc was added at 100 μL/well to the plates and incubated at 37° C. After 1 hour, the plates were washed with PBST, and a detection antibody anti-mouse IgG/HRP (Invitrogen Corp.) was added at 100 μL/well to the plates and incubated at 37° C. After 1 hour, the plates were washed with PBST, and TMB (Sigma-Aldrich Corp.) was added at 100 μL/well to the plates to develop color. After 30 minutes, the reaction was terminated with 1 M sulfuric acid, and the color values (O.D. 450 nm/650 nm) were measured using a microplate reader (Molecular Devices, Inc.).

Assay [4] has as its target T1, human IL-18 (MBL Medical & Biological …). As to the kind of experiment: panning of an scFv phage library on biotinylated human IL-18 on streptavidin magnetic beads.
The target is the same in assay [5]. Description: cell-based or functional assay.
Assay [6] concerns the target T2, human IL-1β (Funakoshi Corp.) (human, UniProt P01584 117-269, biotinylated (Biotin-PEAC5-maleimide or Biotin-AC5 Sulfo-OSu)).
T2 construct: also called biotinylated human IL-1β
As to the kind of experiment: ELISA on biotinylated cytokine on streptavidin plates.

Assay [7] has as its target T3, human IL-33 (MBL Medical & Biological Laboratories, Co., Ltd.) (human, UniProt O95760 112-270, limits assumed, biotinylated (Biotin-PEAC5-maleimide or Biotin-AC5 Sulfo-OSu)).
T3 construct: also called biotinylated human IL-33
T3 sequence (looked up): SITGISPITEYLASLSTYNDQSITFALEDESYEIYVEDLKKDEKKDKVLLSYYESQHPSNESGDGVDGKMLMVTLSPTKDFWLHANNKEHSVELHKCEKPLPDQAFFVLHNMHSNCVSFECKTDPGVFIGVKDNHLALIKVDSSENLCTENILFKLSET
The description is as above.

The target of assay [8] is T4, rat IL-18 (Acris Antibodies GmbH) (rat, UniProt P97636 37-194, limits assumed, biotinylated (Biotin-PEAC5-maleimide or Biotin-AC5 Sulfo-OSu)).
T4 construct: also called biotinylated rat IL-18
T4 sequence (looked up): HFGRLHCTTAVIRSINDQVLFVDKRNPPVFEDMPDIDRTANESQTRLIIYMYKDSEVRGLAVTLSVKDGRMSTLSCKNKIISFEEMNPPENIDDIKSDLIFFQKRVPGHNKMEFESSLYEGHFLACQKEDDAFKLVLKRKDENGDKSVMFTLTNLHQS
Described as above.

Assay [9] concerns the target T5, mouse IL-18 (MBL Medical & Biological Laboratories, Co., Ltd.) (mouse, UniProt P70380 36-192, biotinylated (Biotin-PEAC5-maleimide or Biotin-AC5 Sulfo-OSu)).
T5 construct: also called biotinylated mouse IL-18
T5 sequence (looked up): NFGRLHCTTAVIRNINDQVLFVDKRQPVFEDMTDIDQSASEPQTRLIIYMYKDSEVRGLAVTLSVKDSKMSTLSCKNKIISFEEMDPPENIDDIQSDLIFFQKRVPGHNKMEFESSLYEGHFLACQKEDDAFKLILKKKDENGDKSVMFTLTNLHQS
The assay is described as above.

For assay [10], the target named is T1, human IL-18 (MBL Medical & Biological …). Description: ELISA, biotinylated human IL-18 on streptavidin plate, HRP detection antibody, O.D. 450nm/650nm. As to the method: The binding activity of the obtained scFv phages, scFv, and IgG prepared by a standard method (conventional method) was evaluated by ELISA. The biotinylated human IL-18 or the biotinylated mouse IL-18 was diluted to 1 μg/mL with PBS (Sigma-Aldrich Corp.), added at 100 μL/well to Streptavidin plates (Nunc), and incubated at room temperature for 2 hours to immobilize the IL-18. After the immobilization, the plates were washed with PBST, and each obtained scFv phage, scFv, or IgG was added at 100 μL/well to the plates and incubated at 37° C. After 1 hour, the plates were washed with PBST, and a detection antibody anti-M13/HRP (GE Healthcare Japan Corp.), anti-His tag/HRP (Bethyl Laboratories, Inc.), anti-V5 tag/HRP (Bethyl Laboratories, Inc.), anti-mouse IgG/HRP (Invitrogen Corp.), or anti-hFc/HRP (Cosmo Bio Co., Ltd., The binding site) was added at 100 μL/well to the plates and incubated at 37° C. After 1 hour, the plates were washed with PBST, and TMB (Sigma-Aldrich Corp.) was added at 100 μL/well to the plates to develop color. After 30 minutes, the reaction was terminated with 2 N sulfuric acid, and the color values (O.D. 450 nm/650 nm) were measured using a microplate reader (Molecular Devices, Inc.).

Where a chain is given by its changes, count along the chain named.

Turning to Negative control antibody, the Amount of IFN-γ produced in [1] came out at 109 pg/mL; in assay [2], 134 pg/mL.

B1: 4A6D scFv-mFc (Fc fusion)
scFv: EVQLVESGGGLVQPGGSMRLSCTASGFTFDEYAMSWVRQAPGKGLEWVSGISTGGGGTYYADSVEGRFTISRDNSKNTLYLQMNSLRAEDTAVYYCAKPWLSGSRSGDFWGQGTLVTVSSASTGGGGSGGGGSGGGGSQSALTQPASVSGSPGQSITISCTGTSSDVGGYNYVSWYQQHPGKAPKLLIYEVSHRPSGVSDRFSGSKSGNTASLTISGLQAEDEADYYCSSFTSSSSLYVFGTGTKLTVL
notes: not shown: mouse Fc (mFc) and any junction to it
On to B1, for which, in assay [3], the “EC50 (read off the curve)” value was about 0.008 µg/mL.

B2: 4A6D scFv phage (scFv)
scFv: B1 scFv
modifications: displayed on phage
notes: the phage coat fusion is not described; not shown: phage coat protein fusion (display partner) and any tags; not described
With B2, the binding result in assay [4] is “binds”.

B3: 4A6S scFv phage (scFv)
scFv: B1 scFv with D30S
modifications: displayed on phage
notes: as for B2
Take B3: the binding result in assay [4] was “binds”.

B4: IgG molecule-type 4A6S (antibody, V domains shown)
VH: EVQLVESGGGLVQPGGSMRLSCTASGFTFSEYAMSWVRQAPGKGLEWVSGISTGGGGTYYADSVEGRFTISRDNSKNTLYLQMNSLRAEDTAVYYCAKPWLSGSRSGDFWGQGTLVTVSS
VL: QSALTQPASVSGSPGQSITISCTGTSSDVGGYNYVSWYQQHPGKAPKLLIYEVSHRPSGVSDRFSGSKSGNTASLTISGLQAEDEADYYCSSFTSSSSLYVFGTGTKLTVL
notes: IgG prepared by a standard method; also called human anti-human IL-18 antibody 4A6S
Consider B4, for which the “Neutralizing ability (IC50, nM)” value in assay [5] amounted to 0.013 nM. For the same molecule, the binding result in [6], in assay [7], in assay [8] and in [9] was “no binding” in each case. Further, the concentration giving a half-maximal response (EC50 (read off the curve)) in [10] was about 0.02 µg/mL.
